Results as given in patent publication US10188706B2, “Plasminogen activator mutants as anti-fibrinolytic agents” (HADASIT MEDICAL RESEARCH SERVICES & DEVELOPMENT LIMITED, priority 2012, dated 2019).
“Also recorded” adds a separate entry of the source.

How the values were obtained:
WT-tPA = experiment: Fibrinolysis assay in human plasma derived clots, lysis by WT-tPA; format: biochemical
Method: (§1) Fibrinolysis Assay in Human Plasma Derived Clots
(§2) Clots were formed by placing human plasma (200 μL) in 16-mm diameter tissue culture wells flowed by adding thrombin (0.4 U/mL final concentration). Fibrinolysis was measured as described in Higazi A A et al., Blood (1998), 92(6):2075-83). Briefly, 10 μL tPA or uPA were placed over the plasma clots for 2 hours at 37° C., photographed and the diameter of the wholes were determined.

plasminogen = target: T1, plasminogen (Homo sapiens, UniProt P00747); experiment: Ser481-Ala tPA/plasminogen protein interaction assay by co-immunoprecipitation; format: binding
T1 construct: Glu-plasminogen was prepared from human plasma; from tissue; host or cells: human plasma
Method: Ser^481-Ala tPA/Plasminogen Protein Interaction Assay by Co-Immunoprecipitation
Human Ser^481-Ala tPA and plasminogen, each at 100 nM final concentration in absence or presence of 1 μM uPA or fibrin degradation products, were incubated with goat polyclonal antibody to plasminogen and incubated with Protein A agarose. The protein A agarose beads were separated by centrifugation, washed, and boiled for 5 min. The beads were precipitated by centrifugation and the samples were run on NuPAGE 4-12%. As a control, 80 ng of human Ser^481-Ala tPA was loaded on the gel. The proteins from the gel were transferred onto a PVDF membrane. The membrane was blocked in milk/PBST before incubation for 1 hr with mouse monoclonal antibody to tPA. Subsequently it was washed, incubated with goat anti-mouse IgG-HRP conjugate, washed again, and detected with ECL.

uPA [1] = target: T2, uPA (Homo sapiens, UniProt P00749); experiment: Fibrinolysis assay in clots from fresh whole human blood monitored by thromboelastography (TEG), lysis by uPA; format: biochemical; conditions: uPA 10 nM; 50 or 500 nM tPA-S481A; FIG. 2C
T2 construct: Single-chain urokinase (uPA) was purified, characterized as previously reported; made in house
Method: (§3) Fibrinolysis Assay in Blood Clots Derived from Fresh Whole Human Blood
(§4) Clot viscoelastic properties were assessed by thromboelastography (TEG®, Haemoscope) and rotational thromboelastometry (ROTEM®, Pentapharm). Both systems use a vertical pin within a cup that contains the WB sample. In TEG®, the cup oscillates and the pin is stationary whereas in ROTEM®, the cup is stationary while the pin oscillates. As a clot forms between the cup and the pin, the reduction in transmitted rotation from the cup to the pin (TEG®) or impedance to the oscillatory movement of the pin (ROTEM®) is detected and a trace is generated.

tPA = experiment: Plasminogen activator activity, chromogenic assay without fibrin, activation by tPA; format: biochemical, human; conditions: FIG. 2D; for plasminogen activation by tPA in the absence of fibrin, in the presence of TA: mutant 100 nM added together with TA
Method: (§5) Plasminogen Activator Activity
(§6) Plasminogen activator activity was determined by adding tPA (50 nM) or uPA (20 nM), to a reaction mixture containing Glu-plasminogen and the plasmin chromogenic substrate Spectrazyme PL (100 μM) in phosphate-buffered saline (PBS) at 37° C., and the light absorbance at 405 nm was measured continuously over time. The initial velocities of plasmin generation at the different conditions were calculated from the change in the A405 nm over time. The initial velocity of the reaction at each plasminogen concentration was obtained by calculating the change in the rate of A405 over different time intervals and the results were expressed as the change in optical density (ΔOD) per minute, which represents the slope of the initial velocity of plasminogen activation (Higazi A et al., J Biol Chem. (1995), 270(29):17375-80).

uPA [2] = target: T2, uPA; experiment: Plasminogen activator activity, chromogenic assay without fibrin, activation by uPA; format: biochemical; conditions: FIG. 2D; for plasminogen activation by uPA in the absence of fibrin, in the presence of TA: mutant 100 nM added together with TA
Method: as §5, §6

uPA [3] = target: T2, uPA; experiment: Fibrinolysis assay in human plasma derived clots, lysis by uPA; format: biochemical; conditions: uPA 50 nM; mutant 50 nM; FIG. 2A, 2B
Method: as §1, §2

NMDA-Rs = experiment: Activation of NMDA-Rs by WT-tPA
WT mice subjected to CHI = experiment: Closed head injury (CHI) model of TBI in WT mice; format: in vivo, mouse
Method: Eight to twelve weeks old C57 mice obtained from Harlan, Israel. Mice were administered standard laboratory chow and water ad libitum, and kept in controlled temperature and light conditions. Animal experiments were carried out according to the guidelines of the Hebrew University-Institutional Committee for Care and Use of Laboratory Animals, and with the committee's approval.
(§7) Closed Head Injury (CHI) Model
(§8) Head trauma was induced by using a modified weight-drop device, as previously described (Chen Y. et al. (1996) J. Neurotrauma, 13:557-568). Briefly, after induction of ether anesthesia, a midline longitudinal incision was made, the skin was retracted and the skull was exposed. The left anterior frontal area was identified and a Teflon tipped cone (2-mm diameter) was placed 1 mm lateral to the midline, in the midcoronal plane. The head was held in place manually and a 75-g weight was dropped on the cone from a height of 18 cm, resulting in focal injury to the left hemisphere. After trauma, the mice received supporting oxygenation with 95% 02 for no longer than 2 min and were then returned to their cages. In sham controls only anesthesia and skin incision were carried out.

[4] = system: mice treated with Coumadin and subjected to CHI; experiment: Closed head injury (CHI) in mice anticoagulated with warfarin (Coumadin); format: in vivo, mouse; conditions: WT mice, INR 2.5; tPA-S481A 1 mg/kg immediately after TBI; Hgb at 2 or 8 hrs; FIG. 6C
Excerpt: as §7, §8

[5] = system: tPA-/- and uPA-/- mice subjected to CHI; experiment: Closed head injury (CHI) model in tPA-/- and uPA-/- mice; format: in vivo, mouse; conditions: WT-tPA or WT-uPA 5 mg/kg plus equimolar dose of mutant
Excerpt: as §7, §8

WT tPA = target: T3, WT tPA (Homo sapiens, UniProt P00750); experiment: Fibrinolysis assay in clots from fresh whole human blood monitored by thromboelastography (TEG), lysis by WT tPA; format: biochemical; conditions: WT tPA 10 nM; 50 or 500 nM tPA-S481A; FIG. 2C
T3 construct: purchased Genentech (South San Francisco, Calif.)
T3 sequence (P00750 36-562): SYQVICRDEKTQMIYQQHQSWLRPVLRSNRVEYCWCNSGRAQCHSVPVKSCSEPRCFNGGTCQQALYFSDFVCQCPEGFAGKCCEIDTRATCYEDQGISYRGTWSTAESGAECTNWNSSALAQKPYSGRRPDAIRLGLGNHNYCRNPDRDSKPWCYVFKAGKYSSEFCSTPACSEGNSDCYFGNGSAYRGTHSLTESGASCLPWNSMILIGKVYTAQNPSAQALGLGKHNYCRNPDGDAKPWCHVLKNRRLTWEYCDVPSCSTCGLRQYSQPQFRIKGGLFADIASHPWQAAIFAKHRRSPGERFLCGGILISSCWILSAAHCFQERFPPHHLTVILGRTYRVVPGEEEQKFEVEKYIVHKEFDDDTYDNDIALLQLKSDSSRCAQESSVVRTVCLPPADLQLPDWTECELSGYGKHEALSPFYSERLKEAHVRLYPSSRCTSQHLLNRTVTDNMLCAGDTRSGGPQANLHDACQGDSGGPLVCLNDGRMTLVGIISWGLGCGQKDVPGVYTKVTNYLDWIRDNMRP
Method: as §3, §4

reteplase = reteplase (Homo sapiens, UniProt P00750); experiment: Fibrinolysis assay in human plasma derived clots, lysis by reteplase; format: biochemical; conditions: reteplase 20 nM, mutant 10 nM, FIG. 2B
Method: as §1, §2

Chain of WT-tPA (P00750 36-562): as above

B1: tPA-S^481A: catalytically inactive human tPA variant, Ser481 substituted to Ala; SEQ ID NO. 1 (SEQ ID NO. 12 with N-terminal RS) (protein, listed as Homo sapiens)
chain: GARSYQVICRDEKTQMIYQQHQSWLRPVLRSNRVEYCWCNSGRAQCHSVPVKSCSEPRCFNGGTCQQALYFSDFVCQCPEGFAGKCCEIDTRATCYEDQGISYRGTWSTAESGAECTNWNSSALAQKPYSGRRPDAIRLGLGNHNYCRNPDRDSKPWCYVFKAGKYSSEFCSTPACSEGNSDCYFGNGSAYRGTHSLTESGASCLPWNSMILIGKVYTAQNPSAQALGLGKHNYCRNPDGDAKPWCHVLKNRRLTWEYCDVPSCSTCGLRQYSQPQFRIKGGLFADIASHPWQAAIFAKHRRSPGERFLCGGILISSCWILSAAHCFQERFPPHHLTVILGRTYRVVPGEEEQKFEVEKYIVHKEFDDDTYDNDIALLQLKSDSSRCAQESSVVRTVCLPPADLQLPDWTECELSGYGKHEALSPFYSERLKEAHVRLYPSSRCTSQHLLNRTVTDNMLCAGDTRSGGPQANLHDACQGDAGGPLVCLNDGRMTLVGIISWGLGCGQKDVPGVYTKVTNYLDWIRDNMRP
- potency as inhibitor of fibrinolysis compared with TA (WT-tPA; TA tested at its maximal inhibitory concentration, FIG. 2B): more potent inhibitors of fibrinolysis than TA
- lysis of human plasma derived clots by WT-tPA (WT-tPA; WT-tPA 20 nM, mutant 50 nM, FIG. 2A, 2B): inhibited lysis
- binding to plasminogen (complex formation) (plasminogen; in the absence of fibrin, 100 nM each): no complexes were formed
- binding to plasminogen (complex formation) (plasminogen; in the presence of fibrin, 100 nM each, immunoprecipitated with anti-plasminogen, detected with anti-tPA): binds to plasminogen only in the presence of fibrin; also recorded: formed a stable complex
- binding to plasminogen (complex formation) (plasminogen; with fibrin in the presence of 1 μM uPA): inhibited by uPA
- lysis of clots from fresh whole human blood monitored by TEG, by uPA (uPA [1]): inhibited lysis
- plasminogen activation by tPA in the absence of fibrin, in the presence of TA (tPA): inhibited the plasminogen activation induced by tPA
- plasminogen activation by tPA in the absence of fibrin, in the presence of TA (tPA; listed as tPA^Ser481Ala): inhibit plasminogen activation
- plasminogen activation by tPA in the absence of fibrin (change in OD per minute) (tPA; plasminogen 500 nM, WT-tPA 50 nM, mutants 100 nM or TA 200 nM alone): Neither tPA-S^481A nor tPA-S^481A-DS inhibited; also recorded: had no effect
- plasminogen activation by uPA in the absence of fibrin, in the presence of TA (uPA [2]): inhibited the activation of plasminogen by uPA
- plasminogen activation by uPA in the absence of fibrin, in the presence of TA (uPA [2]; listed as tPA^Ser481Ala): inhibit plasminogen activation
- plasminogen activation by uPA in the absence of fibrin (change in OD per minute) (uPA [2]; plasminogen 500 nM, uPA 20 nM, mutants 100 nM or TA 200 nM alone): Neither tPA-S^481A nor tPA-S^481A-DS inhibited; also recorded: had no effect
- lysis of human plasma derived clots by uPA (uPA [3]): inhibited lysis
- activation of NMDA-Rs by WT-tPA (NMDA-Rs): inhibited activation of NMDA-Rs by WT-tPA
- intracerebral hemorrhage increased by injected WT-tPA post CHI (WT mice subjected to CHI; WT mice given WT-tPA 5 mg/kg immediately after CHI plus equimolar mutant): could be inhibited
- plasma levels of d-Dimers post CHI (WT mice subjected to CHI; WT mice, 1 mg/kg IV, measured 2 hours after CHI, FIG. 4A, 1 mg/kg): significantly attenuated the increase in d-Dimers; also recorded: inhibited the formation of d-Dimers
- platelet counts / thrombocytopenia post CHI (WT mice subjected to CHI; WT mice, 1 mg/kg IV, measured 2 hours after CHI, FIG. 4B, 1 mg/kg): prevented the development of thrombocytopenia; also recorded: inhibited the development of thrombocytopenia
- CSF fibrinolytic activity post CHI (WT mice subjected to CHI; WT mice, IV after CHI, CSF obtained 2 hours after CHI, tested on plasma derived clots): inhibited CSF fibrinolytic activity
- intracerebral hemorrhage (MRI, extravasation of Hgb) post CHI (WT mice subjected to CHI; WT mice, IV immediately after or 2 hrs after CHI, Hgb at 2 or 8 hrs, MRI at 24 hrs): significantly attenuated the expansion of intracerebral hemorrhage; also recorded: inhibited
- inhibition of intracerebral hemorrhage compared with combination of TA and aprotinin (WT mice subjected to CHI; combination in optimal concentrations, FIG. 3B): comparable to the inhibition induced by a combination of TA and aprotinin
- neuroprotection (neurological severity score, NSS) (WT mice subjected to CHI; given 2 hrs after CHI, FIG. 5): the difference in neuroprotection provided by the two tPA variants vanished
- neuroprotection (neurological severity score, NSS, 24 hours after CHI) (WT mice subjected to CHI; given IV immediately after CHI, 1 mg/kg, FIG. 5): exerts neuroprotection
- potency as inhibitor of intracerebral hemorrhage compared with TA or aprotinin (WT mice subjected to CHI; optimal concentrations of TA or aprotinin, FIG. 3B): more potent inhibitors of intracerebral hemorrhage than optimal concentrations of TA or aprotinin
- post-traumatic intracerebral hemorrhage (brain hemoglobin) in warfarin-anticoagulated mice [4]: almost totally inhibited
- expansion of post traumatic ICH in knock-out mice given exogenous WT-tPA or WT-uPA [5]: inhibited the expansion of the post traumatic ICH
- lysis of clots from fresh whole human blood monitored by TEG, by WT tPA (WT tPA): inhibited lysis
- clot lysis induced by reteplase (reteplase): inhibit the clot lysis induced by reteplase
- clot lysis induced by reteplase (reteplase; listed as tPA^Ser481Ala): inhibit the fibrinolysis
